± gives the uncertainty stated by the source.

The data set can be described thus: amyloid nucleation score (Sup35N fusion, yeast selection) (log enrichment); library NNK3; higher = more nucleation; inactive = no reads after selection. The procedure, abridged:
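Using DiMSum, nucleation scores were taken as the log enrichment of output over input reads, centred on the mode score of non-aggregating sequences. The input and output reads came from Illumina sequencing of plasmid inserts, with sequences under 100 input reads excluded. The yeast were psi-negative, expressed Sup35N fused to peptides of 20 random codons, were induced with 100 μM copper sulfate for 24 hours, and were grown 7 days at 30°C on medium lacking adenine and uracil.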
Take NLWVADWIEHHYPSRSSIFA: the amyloid nucleation score result is “inactive”. With NLWYAFMSFVVNDGHIRLGR, the amyloid nucleation score worked out at 1.1 ± 0.11. For NLYFGHKSTS the value was “inactive”; for NMCDNMQQIMVSGYVVVWVY, 1.19 ± 0.15. As for NMIIVDFDNLLYNMNYHLAG, the amyloid nucleation score came to 1.49 ± 0.11. NMLKAASKTVKG: the amyloid nucleation score result was “inactive”. For NMQVHFIMCARSRLQGNHVS, the amyloid nucleation score entry was “inactive”.

As for NMRVCCIGNSFSMGYLICWY, the amyloid nucleation score turned out to be 2.47 ± 0.057. NNCEVNLCSLELPWKTKLMM registered an amyloid nucleation score of 0.264 ± 0.85.

NNCTSTRSMVVGEYRKKGAL registered an amyloid nucleation score of -0.46 ± 0.84. For NNGRYLMGRRKESDLLLGQW the value was “inactive”; for NNRFTGILPVWTMHE, “inactive”; for NPGRYRGGRTAHIFPERDIR, “inactive”. The result for NPLDSLYLIDIFAHSSASEL reads “inactive”. For NPRHGYLPTIIGLDHSIHDL the value was “inactive”; for NPSQSRSASWQHSYHRISGL, “inactive”. As for NQNIMWIAKYIF, the amyloid nucleation score was 0.845 ± 0.14. The result for NQVRVSKSVNRAIDASPEWD reads “inactive”; that for NQYQSLSRRCSAGALGALVV, “inactive”; that for NRATVYMTQAKGCCSALFQV, 0.315 ± 0.3. For NRAVQRFCCDFNAPHIPFR the value was “inactive”.

As to NRFINASNS, the amyloid nucleation score entry was “inactive”. With NRFQLVSRYAWHSWVK, the amyloid nucleation score entry was “inactive”.

As to NRIVQAFPSIGGFATNVCLC, the amyloid nucleation score result was “inactive”. For NRMLNYIFDTTS the value was “inactive”. For NRNFYGL the value was “inactive”.

NRPLNIAAVLY: the amyloid nucleation score result is “inactive”. For NRRVCYSLISMGIVLVCRYG the value was 0.306 ± 0.22; for NRSRNMESVRDSLLSVVNRE, “inactive”; for NRTRCGDYILGCQSSFDTCH, “inactive”. The result for NRVSGALKPLVVS reads “inactive”; that for NSCYTASCS, -0.381 ± 0.63. The result for NSFFKGGWMHPG reads “inactive”. As for NSGLSIVWDWLDCFSGMKYS, the amyloid nucleation score entry is “inactive”.

As to NSHWWCSGFVSVVKIVAEFG, the amyloid nucleation score is 1.23 ± 0.1. The result for NSIAYMVWILALDCCNWGSQ reads 2.85 ± 0.07; that for NSLVGLVCKTGSSFTRNKVV, -0.104 ± 0.75; that for NSMYYPYQVVRWLVDWHVIR, “inactive”. The result for NSNYSVG reads “inactive”; that for NSRLFAYKLKLVV, “inactive”; that for NSRNLR, “inactive”. The result for NSRSKNWGLVFPSNRGLVS reads “inactive”. Take NSSCSCTCLLSGHRHTP: the amyloid nucleation score stood at 0.829 ± 0.24.

In the case of NSTFRFTVTRFCIAPSEYIG, the amyloid nucleation score turned out to be 0.509 ± 0.25. With NSVRLFKNFQWWAFSRHSRL, the amyloid nucleation score result was “inactive”. The result for NSWRHKMMQMKSYHSNVCIW reads “inactive”; that for NSYMHGQDF, “inactive”. For NTCMQPCLSRVCFELDVGCR the value was “inactive”; for NTDFYVVVDRIMFRLLHGFK, “inactive”; for NTDPTQVFQASN, “inactive”. For NTFCGVEISSYIGAARKCLK the value was “inactive”; for NTGCSDNFESFCLKATVHWV, “inactive”. For the substance NTHMRAIMNPLDVSVPRPHK, the amyloid nucleation score result is “inactive”.

Take NTNVVSDYIHHAF: the amyloid nucleation score entry is “inactive”.

The values above are taken from the supplement of paper PMC12042874.
